In patent US6387638:
Positions count from the first letter of the chain named. Names may count otherwise. Ends that are not written are not given here.

B1: combination variant HRG54, phage-displayed (ligand)
chain: SHLVKCGEEREGFCVNGGECFMVKDYGYLMCKCPNEFTGDRCQNYVMAS
modifications: not fully specified; cysteine pairing not given here
notes: not shown: Display carrier: (GGGS)3 linker and M13 pIII C-terminal fragment from residue 323
B2: combination variant HRG61, phage-displayed (ligand)
chain: B1 chain with M47I
modifications: not fully specified; cysteine pairing not given here
notes: not shown: Display carrier only: (GGGS)3 linker and the M13 pIII C-terminal fragment from residue 323
B3: combination variant HRG62, phage-displayed (ligand)
chain: B1 chain with F21Y, M22R, D25T, M47I
modifications: not fully specified; cysteine pairing not given here
notes: as for B2
B4: combination variant HRG55, phage-displayed (ligand)
chain: B1 chain with F21Y, M22R, D25T
modifications: not fully specified; cysteine pairing not given here
notes: as for B1
B5: HRG-β1 EGF variant D1, phage-displayed (ligand)
chain: SHLVKCAEKEKTFCVNGGECYKVRILSNPSRYLCKCPNEFTGDRCQNYVIAS
modifications: not fully specified; cysteine pairing not given here
notes: pHRG8-g3 scaffold; not shown: Display carrier only: the (GGGS)3 linker and the M13 pIII C-terminal fragment from residue 323
B6: combination variant HRG59, phage-displayed (ligand)
chain: B5 chain with K22R, R24K, I25T
modifications: not fully specified; cysteine pairing not given here
notes: as for B1
B7: HRG-β1 EGF variant D10, phage-displayed (ligand)
chain: B5 chain with K22M, R24K, I25T, I50M
modifications: not fully specified; cysteine pairing not given here
notes: as for B5
B8: HRG-β1 EGF variant B5, phage-displayed (ligand)
chain: SHLVKCGWDREGFCVNGGECFMVKDLSNPSRYLCKCPNEFTGDRCQNYVIAS
modifications: not fully specified; cysteine pairing not given here
notes: as for B5
B9: HRG-β1 EGF variant B10, phage-displayed (ligand)
chain: B8 chain with G7D, W8K, D9S
modifications: not fully specified; cysteine pairing not given here
notes: as for B5
B10: combination variant HRG56, phage-displayed (ligand)
chain: B8 chain with W8E, D9E
modifications: not fully specified; cysteine pairing not given here
notes: as for B1
B11: combination variant HRG60, phage-displayed (ligand)
chain: B8 chain with W8E, D9E, F21Y, M22R, D25T
modifications: not fully specified; cysteine pairing not given here
notes: as for B2
B12: combination variant HRG53, phage-displayed (ligand)
chain: B8 chain with W8E, D9E, F21Y, M22R, D25T, I50M
modifications: not fully specified; cysteine pairing not given here
notes: as for B1
B13: HRG90: HRG-β1 EGF Met226Ile, phage-displayed (ligand, phage M13)
chain: SHLVKCAEKEKTFCVNGGECFMVKDLSNPSRYLCKCPNEFTGDRCQNYVIASGGGSGGGSGGGSNSQMAQVGDGDNSPLMNNFRQYLPSLPQSVECRPFVFSAGKPYEFSIDCDKINLFRGVFAFLLYVATFMYVFSTFANILRNKES
notes: range 323-end
B14: HRG-β1 EGF variant E3, phage-displayed (ligand)
chain: SHLVKCAEKEKTFCVNGGECFMVKDYRYRMCKCPNEFTGDRCQNYVIAS
modifications: not fully specified; cysteine pairing not given here
notes: not shown: Display carrier only: the (GGGS)3 linker and the M13 pIII C-terminal fragment from residue 323
B15: combination variant HRG71, phage-displayed (ligand)
chain: B14 chain with F21Y, M22R, D25T, R27G, R29L, N44H
modifications: not fully specified; cysteine pairing not given here
notes: as for B2
B16: combination variant HRG48, phage-displayed (ligand)
chain: B14 chain with R27G, R29L
modifications: not fully specified; cysteine pairing not given here
notes: as for B1
B17: HRG-β1 EGF variant E6, phage-displayed (ligand)
chain: B14 chain with Y26T, R27H, I47M
modifications: not fully specified; cysteine pairing not given here
notes: as for B14
B18: combination variant HRG57, phage-displayed (ligand)
chain: B14 chain with F21Y, M22R, D25T, R27G, R29L, I47M
modifications: not fully specified; cysteine pairing not given here
notes: as for B1
B19: Trx-HRG-β1 146-244 S177A fusion (soluble) (ligand)
chain: AYVSSESPIRISVSTEGANTSSSTSTSTTGTAHLVKCAEKEKTFCVNGGECFMVKDLSNPSRYLCKCPNEFTGDRCQNYVMASFYKHLGIEFMEAEELY
B20: Trx-HRG-β1 146-244 F189A fusion (soluble) (ligand)
chain: B19 chain with A32S, F44A
B21: Trx-HRG-β1 146-244 L179A fusion (soluble) (ligand)
chain: B19 chain with A32S, L34A
B22: Trx-HRG-β1 146-244 K200A fusion (soluble) (ligand)
chain: B19 chain with A32S, K55A
B23: Trx-HRG-β1 146-244 R207A fusion (soluble) (ligand)
chain: B19 chain with A32S, R62A
B24: Trx-HRG-β1 146-244 T217A fusion (soluble) (ligand)
chain: B19 chain with A32S, T72A
B25: Trx-HRG-β1 146-244 H178A fusion (soluble) (ligand)
chain: B19 chain with A32S, H33A
B26: Trx-HRG-β1 146-244 G193A fusion (soluble) (ligand)
chain: B19 chain with A32S, G48A
B27: Trx-HRG-β1 146-244 N192A fusion (soluble) (ligand)
chain: B19 chain with A32S, N47A
B28: Trx-HRG-β1 146-244 P205A fusion (soluble) (ligand)
chain: B19 chain with A32S, P60A
B29: Trx-HRG-β1 146-244 G194A fusion (soluble) (ligand)
chain: B19 chain with A32S, G49A
B30: Trx-HRG-β1 146-244 E195A fusion (soluble) (ligand)
chain: B19 chain with A32S, E50A

Each binder was assayed against T1, ErbB-3 receptor-Ig fusion (homodimer) (human, UniProt P21860 20-643; P21860 20-636) (assay: phage ELISA, soluble ErbB-3-Ig as competitor).
T1 sequence (P21860 other isoform, or with tags, fused parts or gaps): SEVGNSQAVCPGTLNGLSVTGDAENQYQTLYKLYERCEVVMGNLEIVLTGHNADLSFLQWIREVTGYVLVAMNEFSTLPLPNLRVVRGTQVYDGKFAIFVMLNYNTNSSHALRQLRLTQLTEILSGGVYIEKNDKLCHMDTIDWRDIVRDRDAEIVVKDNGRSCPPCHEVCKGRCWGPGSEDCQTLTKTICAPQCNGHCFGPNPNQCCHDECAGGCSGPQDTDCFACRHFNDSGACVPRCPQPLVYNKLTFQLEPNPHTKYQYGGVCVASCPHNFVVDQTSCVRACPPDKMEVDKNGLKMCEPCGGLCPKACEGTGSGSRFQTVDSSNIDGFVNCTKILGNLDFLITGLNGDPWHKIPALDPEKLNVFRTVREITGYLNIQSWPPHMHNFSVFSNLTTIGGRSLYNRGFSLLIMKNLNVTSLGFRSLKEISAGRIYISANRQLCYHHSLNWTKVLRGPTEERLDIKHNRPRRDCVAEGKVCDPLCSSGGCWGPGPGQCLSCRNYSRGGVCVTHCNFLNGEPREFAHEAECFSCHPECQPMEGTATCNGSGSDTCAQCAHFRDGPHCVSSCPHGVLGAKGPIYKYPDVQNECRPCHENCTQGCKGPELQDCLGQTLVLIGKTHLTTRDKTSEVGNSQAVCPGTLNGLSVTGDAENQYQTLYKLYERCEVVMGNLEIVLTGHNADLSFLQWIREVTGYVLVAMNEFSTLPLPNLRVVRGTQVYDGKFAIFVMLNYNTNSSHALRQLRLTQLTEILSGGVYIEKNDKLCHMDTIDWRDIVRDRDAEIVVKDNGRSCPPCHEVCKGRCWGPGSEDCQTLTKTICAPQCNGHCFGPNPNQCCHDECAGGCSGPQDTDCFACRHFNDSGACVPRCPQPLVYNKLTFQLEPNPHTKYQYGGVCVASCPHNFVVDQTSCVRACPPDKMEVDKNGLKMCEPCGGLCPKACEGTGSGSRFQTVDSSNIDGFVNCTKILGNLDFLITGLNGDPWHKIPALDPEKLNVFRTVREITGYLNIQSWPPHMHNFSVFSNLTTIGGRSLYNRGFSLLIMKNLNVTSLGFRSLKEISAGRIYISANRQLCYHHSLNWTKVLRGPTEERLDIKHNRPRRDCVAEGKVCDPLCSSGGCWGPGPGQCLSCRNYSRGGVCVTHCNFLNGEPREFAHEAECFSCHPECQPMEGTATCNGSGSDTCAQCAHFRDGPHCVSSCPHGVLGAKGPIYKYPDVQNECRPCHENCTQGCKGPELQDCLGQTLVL

Binder | EC50(wt)/EC50(mut) [ratio]
B1 | 12
B2 | 29
B3 | 32
B4 | 13
B5 | 11
B6 | 26
B7 | 2.1
B8 | 26
B9 | 9.3
B10 | 31
B11 | 63
B12 | 26
B13 | 6.3
B14 | 16
B15 | 79
B16 | 49
B17 | 6.6
B18 | 24

The binders below were run against T1, ErbB-3 receptor-Ig fusion (homodimer) (assay: displacement of 125I-HRG-β1 177-244 from plate-bound ErbB-3-Ig).

Binder | EC50 [nM]
B19 | 129
B20 | 975
B21 | 394
B22 | 45.4
B23 | 245
B24 | 145
B25 | 476
B26 | 26.9
B27 | 1640
B28 | 39.5
B29 | 1210
B30 | 42

These binders were tested against ErbB-4 receptor-Ig fusion (homodimer) (human, UniProt Q15303 26-651; Q15303 26-640) (assay: displacement of 125I-HRG-β1 177-244 from plate-bound ErbB-4-Ig).
ErbB-4 receptor-Ig fusion (homodimer), sequence (Q15303 other isoform, or with tags, fused parts or gaps): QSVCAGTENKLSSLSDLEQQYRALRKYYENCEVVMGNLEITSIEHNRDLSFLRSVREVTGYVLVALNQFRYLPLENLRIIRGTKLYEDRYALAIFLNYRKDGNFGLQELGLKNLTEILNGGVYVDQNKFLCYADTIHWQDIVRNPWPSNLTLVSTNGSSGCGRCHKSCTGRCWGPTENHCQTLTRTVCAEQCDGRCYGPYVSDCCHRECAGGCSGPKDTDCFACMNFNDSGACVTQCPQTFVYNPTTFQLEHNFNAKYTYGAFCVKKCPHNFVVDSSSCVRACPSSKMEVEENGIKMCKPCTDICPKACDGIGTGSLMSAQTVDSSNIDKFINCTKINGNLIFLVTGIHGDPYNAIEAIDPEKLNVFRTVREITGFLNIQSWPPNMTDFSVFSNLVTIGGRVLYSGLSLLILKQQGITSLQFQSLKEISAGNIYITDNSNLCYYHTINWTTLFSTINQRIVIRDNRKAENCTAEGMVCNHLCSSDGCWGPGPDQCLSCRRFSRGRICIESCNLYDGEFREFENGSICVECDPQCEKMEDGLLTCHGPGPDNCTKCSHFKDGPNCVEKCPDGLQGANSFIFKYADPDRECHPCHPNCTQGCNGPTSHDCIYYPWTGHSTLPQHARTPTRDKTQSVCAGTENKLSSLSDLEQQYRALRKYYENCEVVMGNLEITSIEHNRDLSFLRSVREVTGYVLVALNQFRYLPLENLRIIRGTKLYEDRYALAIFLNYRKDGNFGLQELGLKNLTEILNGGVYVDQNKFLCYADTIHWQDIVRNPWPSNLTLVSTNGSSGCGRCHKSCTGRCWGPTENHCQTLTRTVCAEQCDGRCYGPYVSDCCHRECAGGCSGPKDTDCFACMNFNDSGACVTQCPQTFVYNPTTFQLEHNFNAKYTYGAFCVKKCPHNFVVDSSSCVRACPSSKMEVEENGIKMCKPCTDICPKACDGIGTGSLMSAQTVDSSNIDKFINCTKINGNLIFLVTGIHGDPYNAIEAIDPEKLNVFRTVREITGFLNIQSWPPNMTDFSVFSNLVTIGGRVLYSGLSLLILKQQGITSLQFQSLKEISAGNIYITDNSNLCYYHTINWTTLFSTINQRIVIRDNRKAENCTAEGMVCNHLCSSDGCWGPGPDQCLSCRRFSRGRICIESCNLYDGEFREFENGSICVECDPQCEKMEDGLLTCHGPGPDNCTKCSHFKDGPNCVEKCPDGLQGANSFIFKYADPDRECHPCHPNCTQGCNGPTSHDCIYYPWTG

Binder | EC50 [nM]
B19 | 54.6
B20 | 565
B21 | 51.7
B22 | 16.9
B23 | 24.3
B24 | 32.7
B25 | 138
B26 | 76.3
B27 | 696
B28 | 34.2
B29 | 275
B30 | 13.2
